{"source": "patent US20030017991", "proteins": {"B1": {"name": "Hu-Asp2 expressed in a stable HEK-293 derivative cell line (higher levels of Hu-Asp2) (protein)", "chain": "ETDEEPEEPGRRGSFVEMVDNLRGKSGQGYYVEMTVGSPPQTLNILVDTGSSNFAVGAAPHPFLHRYYQRQLSSTYRDLRKGVYVPYTQGKWEGELGTDLVSIPHGPNVTVRANIAAITESDKFFINGSNWEGILGLAYAEIARPDDSLEPFFDSLVKQTHVPNLFSLHLCGAGFPLNQSEVLASVGGSMIIGGIDHSLYTGSLWYTPIRREWYYEVIIVRVEINGQDLKMDCKEYNYDKSIVDSGTTNLRLPKKVFEAAVKSIKAASSTEKFPDGFWLGEQLVCWQAGTTPWNIFPVISLYLMGEVTNQSFRITILPQQYLRPVEDVATSQDDCYKFAISQSSTGTVMGAVIMEGFYVVFDRARKRIGFAVSACHVHDEFRTAAVEGPFVTLDMEDCGYNIPQTDESTLMTIAYVMAAICALFMLPLCLMVCQWRCLRCLRQQHDDFADDISLLK"}}, "molecular_target": "APP695 with C-terminal dilysine and the mutation KM-DA594-597 to SYEA594-597, expressed in HEK 293 derivative cells, P05067", "sequence (P05067 whole entry, looked up, change not shown, tested part not stated)": "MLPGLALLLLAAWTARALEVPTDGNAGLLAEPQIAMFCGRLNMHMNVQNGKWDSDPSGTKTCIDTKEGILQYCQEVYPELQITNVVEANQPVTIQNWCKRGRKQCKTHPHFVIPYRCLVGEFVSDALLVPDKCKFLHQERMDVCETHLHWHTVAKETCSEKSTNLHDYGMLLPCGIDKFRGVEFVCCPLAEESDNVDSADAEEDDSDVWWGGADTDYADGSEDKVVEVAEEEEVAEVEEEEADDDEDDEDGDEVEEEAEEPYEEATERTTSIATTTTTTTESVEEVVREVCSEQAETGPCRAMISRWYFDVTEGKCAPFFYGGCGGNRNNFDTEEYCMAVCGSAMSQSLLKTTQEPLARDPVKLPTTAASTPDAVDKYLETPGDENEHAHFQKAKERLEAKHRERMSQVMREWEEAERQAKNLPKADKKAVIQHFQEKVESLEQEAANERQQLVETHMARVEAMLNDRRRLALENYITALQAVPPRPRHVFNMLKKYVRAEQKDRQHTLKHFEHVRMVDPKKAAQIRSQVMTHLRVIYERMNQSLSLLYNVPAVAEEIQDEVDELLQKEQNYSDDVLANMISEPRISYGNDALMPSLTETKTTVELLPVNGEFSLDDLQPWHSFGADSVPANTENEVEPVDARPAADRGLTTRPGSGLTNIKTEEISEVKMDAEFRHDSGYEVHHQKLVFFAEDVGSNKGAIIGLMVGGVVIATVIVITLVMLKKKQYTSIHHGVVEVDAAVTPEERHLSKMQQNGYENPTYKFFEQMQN", "data": [{"protein": "B1", "values": [{"measurement": "production of the β-secretase cleavage product CTF-99 (Western blot with antibody C8)", "result": "both mutant APP variants were proficiently cleaved by Asp2"}]}]}
